Target: the molecule itself
Assay: single-molecule photobleaching step analysis

B1: DIC1-eGFP-3xFLAG (dynein intermediate chain 1) (natural protein, mouse, UniProt O88485 1-628, looked up)
chain: MSDKSDLKAELERKKQRLAQIREEKKRKEEERKKKEADMQQKKEPVQDDSDLDRKRRETEALLQSIGISPEPPLVPTPMSPSSKSVSTPSDAGSQDSGDLGPLTRTLQWDTDPSVLQLQSDSELGRRLHKLGVSKVTQVDFLPREVVSYSKETQTPLATHQSEEDEEDEEMVEPKIGHDSELENQEKKQETKEAPPRELTEEEKQQILHSEEFLIFFDRTIRVIERALAEDSDIFFDYSGRELEEKDGDVQAGANLSFNRQFYDEHWSKHRVVTCMDWSLQYPELMVASYSNNEDAPHEPDGVALVWNMKFKKTTPEYVFHCQSSVMSVCFARFHPNLVVGGTYSGQIVLWDNRSHRRTPVQRTPLSAAAHTHPVYCVNVVGTQNAHNLITVSTDGKMCSWSLDMLSTPQESMELVYNKSKPVAVTGMAFPTGDVNNFVVGSEEGTVYTACRHGSKAGIGEVFEGHQGPVTGINCHMAVGPIDFSHLFVTSSFDWTVKLWTTKHNKPLYSFEDNADYVYDVMWSPVHPALFACVDGMGRLDLWNLNSDTEVPTASVAIEGASALNRVRWAQGGKEVAVGDSEGRIWIYDVGELAVPHNDEWTRFARTLVEIRANRADSEEEGAVELAA
For B1, the “stoichiometry N” value was 2.

Source: paper PMC4470572 (Nature communications, 2014)
